Test system: OVA-specific CTL responses
Assay: Relative CTL/cytokine/tetramer responses of mice immunized with OVA
Format: in vivo, C57131/6 mice
Procedure: Female C57131/6 mice (n=10 per group) with a body weight of about 18-20 g were used in the study. They were immunized via intramuscular (IM) injection into the left tibialis anterior muscle with a total volume of 50 μl on study days 0, 14 and 21.
A dose of the composition comprised, in various combinations, one or more of the following components: • Buffer: NaH2PO4.2H20 (229.32 mg/L), NaCl (1168.00 mg/L) and Na2HPO4 (1144.00 mg/L), dissolved in WFI and sterile filtered with a 0.1 μm filter. • Ovalbumin (OVA—Antigen): 10 μg • CpG ODN: 10 μg • Cholesterol: 1 μg • Quil A: 1 μg • DDA: 0.5 μg • Carbopol: 0.0375% • R1005: 50 μg Vaccine Preparation
Buffer was placed in a 50 ml flask with stir bar and stirred at a constant speed throughout all following steps. The components were added in the following order: Antigen (OVA); CPG ODN; Quil A; cholesterol (drop wise); DDA (drop wise); Carbopol®; and Bay R1005®. The composition was stirred at room temperature (approximately 25° C.) for a minimum of 30 minutes while protected from light by covering with foil. The solution was forced through a 25G needle into a syringe to break any large floating particles to obtain a uniform (cloudy) suspension and transferred to sterile glass vials for storage.
The following samples were collected: • Plasma: 4 weeks after the prime vaccination (1 week after second booster vaccination) • Cytotoxic T lymphocyte (CTL) (6 weeks after the prime vaccination (3 weeks after second booster vaccination) • Cytokine secretion in supernatant (4 weeks after the prime vaccination • 24-hour supernatant (IL-2, IL-4, IL-10, TNF • 72-hour supernatant (IFN-g • Tetramer (4 weeks after the prime vaccination • Cytokine producing T cells (6 weeks after the prime vaccination
The results are provided as a relative score that for each adjuvant showing the effect of the adjuvant. The endpoints are a relative scale based on the sum of the individual Cytotoxic T—Lymphocyte responses.

B1: OVA: Ovalbumin antigen, 10 μg, without adjuvant (protein, UniProt P01012 2-386, looked up)
Ovalbumin: GSIGAASMEFCFDVFKELKVHHANENIFYCPIAIMSALAMVYLGAKDSTRTQINKVVRFDKLPGFGDSIEAQCGTSVNVHSSLRDILNQITKPNDVYSFSLASRLYAEERYPILPEYLQCVKELYRGGLEPINFQTAADQARELINSWVESQTNGIIRNVLQPSSVDSQTAMVLVNAIVFKGLWEKAFKDEDTQAMPFRVTEQESKPVQMMYQIGLFRVASMASEKMKILELPFASGTMSMLVLLPDEVSGLEQLESIINFEKLTEWTSSNVMEERKIKVYLPRMKMEEKYNLTSVLMAMGITDVFSSSANLSGISSAESLKISQAVHAAHAEINEAGREVVGSAEAGVDAASVSEEFRADHPFLFCIKHIATNAVLFFGRCVSP
Relative score, 4 weeks after the prime vaccination
  Relative CTL Responses: Tetramer: 1
Relative score, 6 weeks after the prime vaccination
  Relative CTL Responses: CTL: 1
Relative score, 24-hour supernatant
  Relative CTL Responses: IL-2: 1
Relative score, 72-hour supernatant
  Relative CTL Responses: IFN-g: 1
Sum of the individual relative scores
  Relative CTL Responses: Total: 4
